In patent EP4763988A1 (Minghui Pharmaceutical (Hangzhou) Ltd., dated 2025):
Where two headings read alike, the source gives them in different places. Values belong to the binder of their own block, whether it stands above or below them.

Assays:
[1] = biological target: T1, Human CDCP1, His Tag (KACTUS, Cat.No. CDC-HM101) (human) (UniProt Q9H5V8); assay: ELISA of E. coli lysate supernatant of the clone on human CDCP1 antigen
T1 sequence (looked up): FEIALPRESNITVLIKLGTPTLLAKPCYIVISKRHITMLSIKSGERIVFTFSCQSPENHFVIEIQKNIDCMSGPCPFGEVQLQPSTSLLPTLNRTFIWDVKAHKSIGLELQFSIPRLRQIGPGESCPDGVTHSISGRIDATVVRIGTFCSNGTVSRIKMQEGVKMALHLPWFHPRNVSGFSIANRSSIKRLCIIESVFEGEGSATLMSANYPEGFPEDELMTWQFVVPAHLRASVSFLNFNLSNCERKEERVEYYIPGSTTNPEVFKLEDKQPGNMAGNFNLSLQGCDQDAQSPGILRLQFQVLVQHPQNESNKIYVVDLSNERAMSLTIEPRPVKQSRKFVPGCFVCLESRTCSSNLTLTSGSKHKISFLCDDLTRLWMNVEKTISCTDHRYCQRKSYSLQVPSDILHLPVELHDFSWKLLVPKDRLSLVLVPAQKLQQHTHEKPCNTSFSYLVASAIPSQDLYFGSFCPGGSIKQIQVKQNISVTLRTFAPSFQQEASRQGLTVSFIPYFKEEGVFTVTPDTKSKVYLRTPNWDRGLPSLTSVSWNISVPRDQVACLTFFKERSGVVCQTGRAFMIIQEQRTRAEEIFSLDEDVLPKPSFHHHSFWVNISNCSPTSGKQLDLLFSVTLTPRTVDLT

[2] = biological target: T2, human CDCP1 endogenously expressed on tumor cells (HCT116, SW480, HT-29, LNCaP) (human, UniProt Q9H5V8 30-836); assay: flow cytometry on LNCaP cells endogenously expressing human CDCP1
T2 construct: whole, on cells; also called fl-CDCP1
T2 sequence (looked up): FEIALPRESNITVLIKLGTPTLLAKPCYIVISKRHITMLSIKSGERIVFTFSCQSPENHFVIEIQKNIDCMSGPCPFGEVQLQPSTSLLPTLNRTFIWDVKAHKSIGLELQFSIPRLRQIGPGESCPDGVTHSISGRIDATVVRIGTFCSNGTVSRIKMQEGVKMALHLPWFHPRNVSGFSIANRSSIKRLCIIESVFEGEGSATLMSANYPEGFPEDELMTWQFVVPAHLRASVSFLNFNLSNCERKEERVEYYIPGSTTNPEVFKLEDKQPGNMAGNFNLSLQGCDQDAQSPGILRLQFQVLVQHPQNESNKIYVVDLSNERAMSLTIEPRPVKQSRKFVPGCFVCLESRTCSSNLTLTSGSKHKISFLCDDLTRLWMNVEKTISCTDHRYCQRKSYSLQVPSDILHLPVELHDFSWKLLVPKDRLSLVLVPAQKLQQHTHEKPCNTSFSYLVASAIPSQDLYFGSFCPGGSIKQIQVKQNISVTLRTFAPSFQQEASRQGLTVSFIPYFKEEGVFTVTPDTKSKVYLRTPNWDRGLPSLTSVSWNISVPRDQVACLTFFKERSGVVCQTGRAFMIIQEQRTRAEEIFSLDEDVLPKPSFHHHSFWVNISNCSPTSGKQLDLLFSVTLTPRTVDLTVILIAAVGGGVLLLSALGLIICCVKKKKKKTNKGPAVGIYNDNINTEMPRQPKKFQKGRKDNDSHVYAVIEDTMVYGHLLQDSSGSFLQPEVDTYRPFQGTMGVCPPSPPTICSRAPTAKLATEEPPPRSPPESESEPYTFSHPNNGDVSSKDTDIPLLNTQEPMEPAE

[3] = biological target: T2, human CDCP1 endogenously expressed on …; assay: flow cytometry on SW480 cells endogenously expressing human CDCP1
[4] = biological target: T2, human CDCP1 endogenously expressed on …; assay: cell-based or functional assay
[5] = biological target: T2, human CDCP1 endogenously expressed on …; assay: flow cytometry on HCT116 cells endogenously expressing human CDCP1
[6] = biological target: T3, Human CDCP1, His Tag (KACTUS, Cat.No. CDC-HM101) (human, UniProt Q9H5V8 30-667, limits assumed); assay: ELISA, plate-coated CDCP1 His Tag 0.5 ug/mL, four-parameter fit
T3 construct: Bought protein coated on ELISA plates; also called human CDCP1 antigen; CDCP1 antigen; not shown: His tag
T3 sequence (looked up): T1 sequence (looked up)

[7] = biological target: T3, Human CDCP1, His Tag (KACTUS, Cat.No. …); assay: as above; remark: listed apart in the source

- OD450 [1]: 0.304
B1: MH1-6-C-2-50 (VHH)
VHH: QLQLVESGGGLVQPGGSLRLSCAASGSDVSANGMVWHRQAPGKQREWVAVISSSGSTNYADSVKGRFTISRDSDKNTMYLQMNNLKPEDTAVYLCGVAHYGQTYWGKGTLVTVSS

- EC50 [2]: 2.21 µg/mL
- EC50 [3]: 2.42 µg/mL
- EC50 [5]: 11.9 µg/mL
B2: h14A043 (MHAB10-PC2) (antibody, human IgG1, kappa, L234A L235A, V domains shown)
VH: QVQLVQSGAEVKKPGSSVKVSCKASGFNIKDYYMNWVRQAPGQGLEWIGWIDPENANTIYDPKFQGRVTITADESTSTAYMELSSLRSEDTAVYYCYGSSYRFTYWGQGTLVTVSS
VL: EIVLTQSPATLSLSPGERATLSCSASSSVSYLYWYQQKPGQAPRPWIYLTSNLASGVPARFSGSGSGTDFTLTISSLEPEDFAVYYCQQWSSNPFTFGGGTKVEIKR
notes: Variable regions from US20230050380A1 on Human IgG1-Kappa constant regions; also called positive control antibody
- EC50 (pM), endocytosis-mediated cell killing (Fab-ZAP, HCT116 cells) [4]: 41 pM

- EC50 [6]: 0.0101 µg/mL
- Top [6]: 1.35 OD450
- bottom [6]: 0.041 OD450
- EC50 [7]: 0.0115 µg/mL
- Top [7]: 1.9 OD450
- bottom [7]: 0.0395 OD450
B3: 25A11 (MHAB10-PC1) (antibody, human IgG1, kappa, L234A L235A, V domains shown)
VH: EVQLQQPGAELVKPGASVKMSCKASGYTFTSYYMYWVKQRPGQGLEWIGEINPSHGGTNFNEKFKNKATLTVDKSSSTVYMQLSSLTSEDSAVYYCTRGGNYPYFAMDYWGQGTSVTVSS
VL: DIQMTQTTSSLSASLGDRVTISCRASQDISNYLNWYQQKPDGTVKLLIYYTSRLHSGVPSRFSGSGSGTDYSLTISNLEQEDIATYFCQQGNTLPWTFGGGTKLEIKR
notes: Variable regions from US20080008719A1 on Human IgG1-Kappa constant regions; MW printed 146kDa; also called positive control antibody
